Reference: patent US20110124552A1

Biological target: mouse CCR2 on mouse cells (splenocytes, T cells, plasma cells, macrophages, EG7 lymphoma cells) (mouse) (UniProt P51683)
Assay: cell-based or functional assay

Chain of UniProt P51683 (P51683 whole entry): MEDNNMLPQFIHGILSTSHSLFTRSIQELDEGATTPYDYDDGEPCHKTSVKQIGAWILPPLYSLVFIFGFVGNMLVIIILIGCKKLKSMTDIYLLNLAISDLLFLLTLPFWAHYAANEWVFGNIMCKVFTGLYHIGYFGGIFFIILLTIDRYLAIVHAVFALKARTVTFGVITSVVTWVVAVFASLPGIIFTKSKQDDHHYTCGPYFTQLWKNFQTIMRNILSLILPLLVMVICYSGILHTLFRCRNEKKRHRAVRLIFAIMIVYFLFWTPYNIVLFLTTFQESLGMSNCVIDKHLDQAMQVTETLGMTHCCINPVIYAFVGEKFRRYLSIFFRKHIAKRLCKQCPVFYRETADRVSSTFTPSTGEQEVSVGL

recombinant CCL2 (rCCL2, CCL2 1-76) (from UniProt P10148 24-99) (ligand)
CD4 T-cells positive for intracellular IL17: 19%
cell death of RA-derived CD4 T-cells, PI/Annexin-V co-staining, 48 h: 15%
